Measurements taken from paper doi:10.1101/2025.10.11.676729.

Molecular target: Pyrococcus abyssi 70S ribosome (Pyrococcus abyssi (endogenous in P. abyssi)) (UniProt Q9V109)
Assay: cryo-EM structure

Sequence of UniProt Q9V109 (Q9V109 whole entry, looked up): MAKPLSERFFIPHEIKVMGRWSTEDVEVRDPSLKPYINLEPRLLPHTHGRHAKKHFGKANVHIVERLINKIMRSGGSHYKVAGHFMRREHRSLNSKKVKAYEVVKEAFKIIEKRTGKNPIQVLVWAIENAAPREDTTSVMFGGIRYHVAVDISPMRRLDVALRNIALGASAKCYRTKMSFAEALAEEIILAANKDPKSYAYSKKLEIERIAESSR

- percent of 70S particles that contained Hib: 51.6%
B1: Hib, endogenous, bound to ribosomes isolated from Pyrococcus abyssi cell extracts (natural protein)
chain: MVGIQVQEVMTDRYAKIDINAPLSEAIGIIEKEDPDLILVFDDNVYKGVLTQDLIIRSHLKWDPTKAKVRDVYKPAPVVKPTDDLSHAAKLLLETDLRSLPVGENKAEILGVISDMALLERVVAEEFGKRKVEEFMTKDVITLGPDDTVAKALATMRDHGISRIPVVDEEGKLEGLVTLHDLIIRFIKPRFKAQYGELAGEKIPPFSMKLREAMIKGVITIMPEATIREAVSTMKDNNIDGLVVVDENNKVVGILTVKDLLLPISRMVEKEARFYLQLGGDASALSEFTRERIINDIKRFVDGYADLLGNEGIIYLYIRRFNEKFRGVHLYQARMRVVTDRGVFIARGETWGAIQAVHDAIRAIERQLLQKAELERDIRYAKRFIEKLELWR
